Measured values from US20250163127A1.

What was measured:
CTLA-4 (human) = test: flow cytometry, cells expressing CTLA-4
PD-L1 (human) = test: flow cytometry, cells expressing PD-L1
CD28 (human) [1] = target: CD28 (human) (UniProt P10747); test: flow cytometry, cells expressing CD28
[2] = substrate: ICOS (Homo sapiens (Human)) (UniProt Q9Y6W8); test: flow cytometry, transfected cells
[3] = target: CTLA-4 (Homo sapiens (Human)) (UniProt P16410); test: flow cytometry, transfected cells
CD28 (human) [4] = target: CD28 (human) (UniProt P10747); test: flow cytometry, transfected cells

Chain of ICOS (Homo sapiens (Human)) (Q9Y6W8 21-199 limits assumed): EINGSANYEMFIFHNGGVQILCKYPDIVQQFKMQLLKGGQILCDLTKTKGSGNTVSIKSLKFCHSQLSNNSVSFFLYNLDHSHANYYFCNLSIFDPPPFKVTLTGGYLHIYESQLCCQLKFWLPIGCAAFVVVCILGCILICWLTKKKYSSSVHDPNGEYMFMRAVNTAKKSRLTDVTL
Chain of CTLA-4 (human) (chain, as listed by the source): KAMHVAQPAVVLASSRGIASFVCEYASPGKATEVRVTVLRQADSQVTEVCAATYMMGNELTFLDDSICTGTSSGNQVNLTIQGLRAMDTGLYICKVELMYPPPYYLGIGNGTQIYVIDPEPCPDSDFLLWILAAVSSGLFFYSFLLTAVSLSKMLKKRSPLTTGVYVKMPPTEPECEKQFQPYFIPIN
Chain of PD-L1 (human) (chain, as listed by the source): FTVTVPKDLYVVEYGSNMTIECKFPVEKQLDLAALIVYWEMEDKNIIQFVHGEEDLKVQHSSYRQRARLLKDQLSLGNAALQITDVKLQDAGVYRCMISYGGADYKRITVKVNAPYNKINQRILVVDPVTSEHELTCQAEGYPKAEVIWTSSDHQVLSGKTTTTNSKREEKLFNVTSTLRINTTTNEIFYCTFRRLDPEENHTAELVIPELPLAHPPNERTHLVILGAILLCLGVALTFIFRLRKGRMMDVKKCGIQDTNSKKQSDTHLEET

Row | Binder | MFI (CTLA-4 (human)) [MFI] | parental ratio (CTLA-4 (human)) | MFI (PD-L1 (human)) [MFI] | parental ratio (PD-L1 (human)) | MFI (CD28 (human) [1]) [MFI] | parental ratio (CD28 (human) [1]) | MFI [2] [MFI] | MFI ratio to WT (ΔWT) [2] [fold] | MFI [3] [MFI] | MFI ratio to WT (ΔWT) [3] [fold] | MFI (CD28 (human) [4]) [MFI] | MFI ratio to WT (ΔWT) (CD28 (human) [4]) [fold]
1 | variant CD80 R29V/M43Q/E81R/L85I/K89R/D90L/A91E/F92N/K93Q/R94G (Fc fusion) VIHVTKEVKEVATLSCGHNVSVEELAQTVIYWQKEKKMVLTMQSGDMNIWPEYKNRTIFDITNNLSIVILALRPSDEGTYRCVVIKYERLENQGEHLAEVTLSVKADFPTPSISDFEIPTSNIRRIICSTSGGFPEPHLSWLENGEELNAINTTVSQDPETELYAVSSKLDFNMTTNHSFMCLIKYGHLRVNQTFNWNTTKQEHFPDN | 996 | 0.02 | 1580 | 0.09 | 1030 | 0.08 |  |  |  |  |  | 
2 | variant CD80 E24G/R29D/Y31L/Q33H/K36G/M38I/T41A/M43R/M47T/F59L/E81V/L85R/K89N/A91T/F92P/K93V/R94L/H96R/N149S/C182S (Fc fusion) VIHVTKEVKEVATLSCGHNVSVEGLAQTDILWHKEGKIVLAMRSGDTNIWPEYKNRTILDITNNLSIVILALRPSDEGTYVCVVRKYENDTPVLERLAEVTLSVKADFPTPSISDFEIPTSNIRRIICSTSGGFPEPHLSWLENGEELSAINTTVSQDPETELYAVSSKLDFNMTTNHSFMSLIKYGHLRVNQTFNWNTTKQEHFPDN | 1020 | 0.02 | 1120 | 0.06 | 1070 | 0.08 |  |  |  |  |  | 
3 | variant CD80 V4M/L70Q/A91G/I118V/T120S/T130A/K169E (Fc fusion) VIHMTKEVKEVATLSCGHNVSVEELAQTRIYWQKEKKMVLTMMSGDMNIWPEYKNRTIFDITNNLSIVIQALRPSDEGTYECVVLKYEKDGFKREHLAEVTLSVKADFPTPSISDFEVPSSNIRRIICSASGGFPEPHLSWLENGEELNAINTTVSQDPETELYAVSSELDFNMTTNHSFMCLIKYGHLRVNQTFNWNTTKQEHFPDN | 263 | 1.26 | 6 | 0.09 | 89 | 0.94 |  |  |  |  |  | 
4 | variant CD80 K37E/F59S/L70Q/A91G/T120S/T130A (Fc fusion) VIHVTKEVKEVATLSCGHNVSVEELAQTRIYWQKEKEMVLTMMSGDMNIWPEYKNRTISDITNNLSIVIQALRPSDEGTYECVVLKYEKDGFKREHLAEVTLSVKADFPTPSISDFEIPSSNIRRIICSASGGFPEPHLSWLENGEELNAINTTVSQDPETELYAVSSKLDFNMTTNHSFMCLIKYGHLRVNQTFNWNTTKQEHFPDN | 74 | 0.36 | 6 | 0.08 | 20 | 0.21 |  |  |  |  |  | 
5 | variant CD80 L70Q/A91G/T110A/I118V/T120S/T130A (Fc fusion) VIHVTKEVKEVATLSCGHNVSVEELAQTRIYWQKEKKMVLTMMSGDMNIWPEYKNRTIFDITNNLSIVIQALRPSDEGTYECVVLKYEKDGFKREHLAEVTLSVKADFPAPSISDFEVPSSNIRRIICSASGGFPEPHLSWLENGEELNAINTTVSQDPETELYAVSSKLDFNMTTNHSFMCLIKYGHLRVNQTFNWNTTKQEHFPDN | 14 | 0.07 | 5 | 0.07 | 8 | 0.09 |  |  |  |  |  | 
6 | variant CD80 K54M/L70Q/A91G/Y164H (Fc fusion) VIHVTKEVKEVATLSCGHNVSVEELAQTRIYWQKEKKMVLTMMSGDMNIWPEYMNRTIFDITNNLSIVIQALRPSDEGTYECVVLKYEKDGFKREHLAEVTLSVKADFPTPSISDFEIPTSNIRRIICSTSGGFPEPHLSWLENGEELNAINTTVSQDPETELHAVSSKLDFNMTTNHSFMCLIKYGHLRVNQTFNWNTTKQEHFPDN | 131 | 0.63 | 5 | 0.08 | 68 | 0.71 |  |  |  |  |  | 
7 | variant CD80 L70Q/A91G/I118V/T120S/T130A/K169E (Fc fusion) VIHVTKEVKEVATLSCGHNVSVEELAQTRIYWQKEKKMVLTMMSGDMNIWPEYKNRTIFDITNNLSIVIQALRPSDEGTYECVVLKYEKDGFKREHLAEVTLSVKADFPTPSISDFEVPSSNIRRIICSASGGFPEPHLSWLENGEELNAINTTVSQDPETELYAVSSELDFNMTTNHSFMCLIKYGHLRVNQTFNWNTTKQEHFPDN |  |  | 6 |  |  |  |  |  |  |  |  | 
8 | variant CD80 S44P/L70Q/A91G/T130A (Fc fusion) VIHVTKEVKEVATLSCGHNVSVEELAQTRIYWQKEKKMVLTMMPGDMNIWPEYKNRTIFDITNNLSIVIQALRPSDEGTYECVVLKYEKDGFKREHLAEVTLSVKADFPTPSISDFEIPTSNIRRIICSASGGFPEPHLSWLENGEELNAINTTVSQDPETELYAVSSKLDFNMTTNHSFMCLIKYGHLRVNQTFNWNTTKQEHFPDN | 134 | 0.64 | 5 | 0.07 | 88 | 0.92 |  |  |  |  |  | 
9 | variant CD80 A91G/L102S (Fc fusion) VIHVTKEVKEVATLSCGHNVSVEELAQTRIYWQKEKKMVLTMMSGDMNIWPEYKNRTIFDITNNLSIVILALRPSDEGTYECVVLKYEKDGFKREHLAEVTSSVKADFPTPSISDFEIPTSNIRRIICSTSGGFPEPHLSWLENGEELNAINTTVSQDPETELYAVSSKLDFNMTTNHSFMCLIKYGHLRVNQTFNWNTTKQEHFPDN | 6 | 0.03 | 5 | 0.08 | 6 | 0.06 |  |  |  |  |  | 
10 | variant CD80 V22A/L70Q/S121P (Fc fusion) VIHVTKEVKEVATLSCGHNVSAEELAQTRIYWQKEKKMVLTMMSGDMNIWPEYKNRTIFDITNNLSIVIQALRPSDEGTYECVVLKYEKDAFKREHLAEVTLSVKADFPTPSISDFEIPTPNIRRIICSTSGGFPEPHLSWLENGEELNAINTTVSQDPETELYAVSSKLDFNMTTNHSFMCLIKYGHLRVNQTFNWNTTKQEHFPDN | 7 | 0.04 | 5 | 0.07 | 5 | 0.06 |  |  |  |  |  | 
11 | variant CD80 A91G/F92L/F108L/I118V/T120S (Fc fusion) VIHVTKEVKEVATLSCGHNVSVEELAQTRIYWQKEKKMVLTMMSGDMNIWPEYKNRTIFDITNNLSIVILALRPSDEGTYECVVLKYEKDGLKREHLAEVTLSVKADLPTPSISDFEVPSSNIRRIICSTSGGFPEPHLSWLENGEELNAINTTVSQDPETELYAVSSKLDFNMTTNHSFMCLIKYGHLRVNQTFNWNTTKQEHFPDN | 128 | 0.61 | 16 | 0.11 | 50 | 0.53 |  |  |  |  |  | 
12 | variant CD80 I67F/L70R/E88G/A91G/I118V/T120S/T130A (Fc fusion) VIHVTKEVKEVATLSCGHNVSVEELAQTRIYWQKEKKMVLTMMSGDMNIWPEYKNRTIFDITNNLSFVIRALRPSDEGTYECVVLKYGKDGFKREHLAEVTLSVKADFPTPSISDFEVPSSNIRRIICSASGGFPEPHLSWLENGEELNAINTTVSQDPETELYAVSSKLDFNMTTNHSFMCLIKYGHLRVNQTFNWNTTKQEHFPDN | 6 | 0.03 | 6 | 0.08 | 5 | 0.05 |  |  |  |  |  | 
13 | variant CD80 A12V/S15F/Y31H/M38L/T41G/M43L/D90N/T130A/P137L/N149D/N152T (Fc fusion) VIHVTKEVKEVVTLFCGHNVSVEELAQTRIHWQKEKKLVLGMLSGDMNIWPEYKNRTIFDITNNLSIVILALRPSDEGTYECVVLKYEKNAFKREHLAEVTLSVKADFPTPSISDFEIPTSNIRRIICSASGGFPELHLSWLENGEELDAITTTVSQDPETELYAVSSKLDFNMTTNHSFMCLIKYGHLRVNQTFNWNTTKQEHFPDN | 6 | 0.03 | 5 | 0.08 | 6 | 0.06 |  |  |  |  |  | 
14 | ICOSL-Fc N52L/N57V (Fc fusion) DTQEKEVRAMVGSDVELSCACPEGSRFDLNDVYVYWQTSESKTVVTYHIPQLSSLEVVDSRYRNRALMSPAGMLRGDFSLRLFNVTPQDEQKFHCLVLSQSLGFQEVLSVEVTLHVAANFSVPVVSAPHSPSQDELTFTCTSINGYPRPNVYWINKTDNSLLDQALQNDTVFLNMRGLYDVVSVLRIARTPSVNIGCCIENVLLQQNLTVGSQTGNDIGERDKITENPVSTGEKNAAT |  |  |  |  |  |  | 257000 | 1.21 | 151000 | 0.46 | 54800 | 2.5
15 | ICOSL-Fc N57Q/Q100P (Fc fusion) DTQEKEVRAMVGSDVELSCACPEGSRFDLNDVYVYWQTSESKTVVTYHIPQNSSLEQVDSRYRNRALMSPAGMLRGDFSLRLFNVTPQDEQKFHCLVLSPSLGFQEVLSVEVTLHVAANFSVPVVSAPHSPSQDELTFTCTSINGYPRPNVYWINKTDNSLLDQALQNDTVFLNMRGLYDVVSVLRIARTPSVNIGCCIENVLLQQNLTVGSQTGNDIGERDKITENPVSTGEKNAAT |  |  |  |  |  |  | 205000 | 0.97 | 69100 | 0.21 | 15200 | 0.7
16 | ICOSL-Fc N52V/N57T/Q100L (Fc fusion) DTQEKEVRAMVGSDVELSCACPEGSRFDLNDVYVYWQTSESKTVVTYHIPQVSSLETVDSRYRNRALMSPAGMLRGDFSLRLFNVTPQDEQKFHCLVLSLSLGFQEVLSVEVTLHVAANFSVPVVSAPHSPSQDELTFTCTSINGYPRPNVYWINKTDNSLLDQALQNDTVFLNMRGLYDVVSVLRIARTPSVNIGCCIENVLLQQNLTVGSQTGNDIGERDKITENPVSTGEKNAAT |  |  |  |  |  |  | 29200 | 0.14 | 11500 | 0.03 | 6200 | 0.3
17 | ICOSL-Fc N52P/N57S/Q100G (Fc fusion) DTQEKEVRAMVGSDVELSCACPEGSRFDLNDVYVYWQTSESKTVVTYHIPQPSSLESVDSRYRNRALMSPAGMLRGDFSLRLFNVTPQDEQKFHCLVLSGSLGFQEVLSVEVTLHVAANFSVPVVSAPHSPSQDELTFTCTSINGYPRPNVYWINKTDNSLLDQALQNDTVFLNMRGLYDVVSVLRIARTPSVNIGCCIENVLLQQNLTVGSQTGNDIGERDKITENPVSTGEKNAAT |  |  |  |  |  |  | 143000 | 0.68 | 5050 | 0.02 | 6800 | 0.3
